{"source": "patent US6787329", "tested_on": "T1, TMR-Val-Pro-Arg-Gly-Lys-TMR", "T1 sequence": "XPRGX"}
{"substance": "trypsin", "values": [{"measurement": "average fluorescence ratio w/ trypsin : w/o trypsin, excitation 360 nm, emission 570-585 nm", "value": 26, "unit": "fold"}, {"measurement": "average fluorescence ratio w/ trypsin : w/o trypsin, excitation 522 nm, emission 570-585 nm", "value": 28, "unit": "fold"}, {"measurement": "average fluorescence ratio w/ trypsin : w/o trypsin, excitation 530 nm, emission 570-585 nm", "value": 27, "unit": "fold"}, {"measurement": "average fluorescence ratio w/ trypsin : w/o trypsin, excitation 553 nm, emission 570-585 nm", "value": 25, "unit": "fold"}, {"measurement": "fluorescence ratio w/ trypsin : w/o trypsin, excitation 360 nm, emission 570 nm", "value": 27, "unit": "fold"}, {"measurement": "fluorescence ratio w/ trypsin : w/o trypsin, excitation 360 nm, emission 571 nm", "value": 25, "unit": "fold"}, {"measurement": "fluorescence ratio w/ trypsin : w/o trypsin, excitation 360 nm, emission 572 nm", "value": 25, "unit": "fold"}, {"measurement": "fluorescence ratio w/ trypsin : w/o trypsin, excitation 360 nm, emission 573 nm", "value": 25, "unit": "fold"}, {"measurement": "fluorescence ratio w/ trypsin : w/o trypsin, excitation 360 nm, emission 574 nm", "value": 27, "unit": "fold"}, {"measurement": "fluorescence ratio w/ trypsin : w/o trypsin, excitation 360 nm, emission 575 nm", "value": 24, "unit": "fold"}, {"measurement": "fluorescence ratio w/ trypsin : w/o trypsin, excitation 360 nm, emission 576 nm", "value": 24, "unit": "fold"}, {"measurement": "fluorescence ratio w/ trypsin : w/o trypsin, excitation 360 nm, emission 577 nm", "value": 26, "unit": "fold"}, {"measurement": "fluorescence ratio w/ trypsin : w/o trypsin, excitation 360 nm, emission 578 nm", "value": 26, "unit": "fold"}, {"measurement": "fluorescence ratio w/ trypsin : w/o trypsin, excitation 360 nm, emission 579 nm", "value": 25, "unit": "fold"}, {"measurement": "fluorescence ratio w/ trypsin : w/o trypsin, excitation 360 nm, emission 580 nm", "value": 27, "unit": "fold"}, {"measurement": "fluorescence ratio w/ trypsin : w/o trypsin, excitation 360 nm, emission 581 nm", "value": 27, "unit": "fold"}, {"measurement": "fluorescence ratio w/ trypsin : w/o trypsin, excitation 360 nm, emission 582 nm", "value": 26, "unit": "fold"}, {"measurement": "fluorescence ratio w/ trypsin : w/o trypsin, excitation 360 nm, emission 583 nm", "value": 28, "unit": "fold"}, {"measurement": "fluorescence ratio w/ trypsin : w/o trypsin, excitation 360 nm, emission 584 nm", "value": 24, "unit": "fold"}, {"measurement": "fluorescence ratio w/ trypsin : w/o trypsin, excitation 360 nm, emission 585 nm", "value": 27, "unit": "fold"}, {"measurement": "fluorescence ratio w/ trypsin : w/o trypsin, excitation 522 nm, emission 570 nm", "value": 29, "unit": "fold"}, {"measurement": "fluorescence ratio w/ trypsin : w/o trypsin, excitation 522 nm, emission 571 nm", "value": 27, "unit": "fold"}, {"measurement": "fluorescence ratio w/ trypsin : w/o trypsin, excitation 522 nm, emission 572 nm", "value": 29, "unit": "fold"}, {"measurement": "fluorescence ratio w/ trypsin : w/o trypsin, excitation 522 nm, emission 573 nm", "value": 29, "unit": "fold"}, {"measurement": "fluorescence ratio w/ trypsin : w/o trypsin, excitation 522 nm, emission 574 nm", "value": 27, "unit": "fold"}, {"measurement": "fluorescence ratio w/ trypsin : w/o trypsin, excitation 522 nm, emission 575 nm", "value": 27, "unit": "fold"}, {"measurement": "fluorescence ratio w/ trypsin : w/o trypsin, excitation 522 nm, emission 576 nm", "value": 29, "unit": "fold"}, {"measurement": "fluorescence ratio w/ trypsin : w/o trypsin, excitation 522 nm, emission 577 nm", "value": 27, "unit": "fold"}, {"measurement": "fluorescence ratio w/ trypsin : w/o trypsin, excitation 522 nm, emission 578 nm", "value": 28, "unit": "fold"}, {"measurement": "fluorescence ratio w/ trypsin : w/o trypsin, excitation 522 nm, emission 579 nm", "value": 27, "unit": "fold"}, {"measurement": "fluorescence ratio w/ trypsin : w/o trypsin, excitation 522 nm, emission 580 nm", "value": 29, "unit": "fold"}, {"measurement": "fluorescence ratio w/ trypsin : w/o trypsin, excitation 522 nm, emission 581 nm", "value": 27, "unit": "fold"}, {"measurement": "fluorescence ratio w/ trypsin : w/o trypsin, excitation 522 nm, emission 582 nm", "value": 29, "unit": "fold"}, {"measurement": "fluorescence ratio w/ trypsin : w/o trypsin, excitation 522 nm, emission 583 nm", "value": 28, "unit": "fold"}, {"measurement": "fluorescence ratio w/ trypsin : w/o trypsin, excitation 522 nm, emission 584 nm", "value": 27, "unit": "fold"}, {"measurement": "fluorescence ratio w/ trypsin : w/o trypsin, excitation 522 nm, emission 585 nm", "value": 28, "unit": "fold"}, {"measurement": "fluorescence ratio w/ trypsin : w/o trypsin, excitation 530 nm, emission 570 nm", "value": 28, "unit": "fold"}, {"measurement": "fluorescence ratio w/ trypsin : w/o trypsin, excitation 530 nm, emission 571 nm", "value": 28, "unit": "fold"}, {"measurement": "fluorescence ratio w/ trypsin : w/o trypsin, excitation 530 nm, emission 572 nm", "value": 27, "unit": "fold"}, {"measurement": "fluorescence ratio w/ trypsin : w/o trypsin, excitation 530 nm, emission 573 nm", "value": 28, "unit": "fold"}, {"measurement": "fluorescence ratio w/ trypsin : w/o trypsin, excitation 530 nm, emission 574 nm", "value": 27, "unit": "fold"}, {"measurement": "fluorescence ratio w/ trypsin : w/o trypsin, excitation 530 nm, emission 575 nm", "value": 28, "unit": "fold"}, {"measurement": "fluorescence ratio w/ trypsin : w/o trypsin, excitation 530 nm, emission 576 nm", "value": 27, "unit": "fold"}, {"measurement": "fluorescence ratio w/ trypsin : w/o trypsin, excitation 530 nm, emission 577 nm", "value": 28, "unit": "fold"}, {"measurement": "fluorescence ratio w/ trypsin : w/o trypsin, excitation 530 nm, emission 578 nm", "value": 27, "unit": "fold"}, {"measurement": "fluorescence ratio w/ trypsin : w/o trypsin, excitation 530 nm, emission 579 nm", "value": 26, "unit": "fold"}, {"measurement": "fluorescence ratio w/ trypsin : w/o trypsin, excitation 530 nm, emission 580 nm", "value": 27, "unit": "fold"}, {"measurement": "fluorescence ratio w/ trypsin : w/o trypsin, excitation 530 nm, emission 581 nm", "value": 27, "unit": "fold"}, {"measurement": "fluorescence ratio w/ trypsin : w/o trypsin, excitation 530 nm, emission 582 nm", "value": 27, "unit": "fold"}, {"measurement": "fluorescence ratio w/ trypsin : w/o trypsin, excitation 530 nm, emission 583 nm", "value": 27, "unit": "fold"}, {"measurement": "fluorescence ratio w/ trypsin : w/o trypsin, excitation 530 nm, emission 584 nm", "value": 27, "unit": "fold"}, {"measurement": "fluorescence ratio w/ trypsin : w/o trypsin, excitation 530 nm, emission 585 nm", "value": 27, "unit": "fold"}, {"measurement": "fluorescence ratio w/ trypsin : w/o trypsin, excitation 553 nm, emission 570 nm", "value": 25, "unit": "fold"}, {"measurement": "fluorescence ratio w/ trypsin : w/o trypsin, excitation 553 nm, emission 571 nm", "value": 25, "unit": "fold"}, {"measurement": "fluorescence ratio w/ trypsin : w/o trypsin, excitation 553 nm, emission 572 nm", "value": 25, "unit": "fold"}, {"measurement": "fluorescence ratio w/ trypsin : w/o trypsin, excitation 553 nm, emission 573 nm", "value": 25, "unit": "fold"}, {"measurement": "fluorescence ratio w/ trypsin : w/o trypsin, excitation 553 nm, emission 574 nm", "value": 25, "unit": "fold"}, {"measurement": "fluorescence ratio w/ trypsin : w/o trypsin, excitation 553 nm, emission 575 nm", "value": 24, "unit": "fold"}, {"measurement": "fluorescence ratio w/ trypsin : w/o trypsin, excitation 553 nm, emission 576 nm", "value": 25, "unit": "fold"}, {"measurement": "fluorescence ratio w/ trypsin : w/o trypsin, excitation 553 nm, emission 577 nm", "value": 25, "unit": "fold"}, {"measurement": "fluorescence ratio w/ trypsin : w/o trypsin, excitation 553 nm, emission 578 nm", "value": 25, "unit": "fold"}, {"measurement": "fluorescence ratio w/ trypsin : w/o trypsin, excitation 553 nm, emission 579 nm", "value": 24, "unit": "fold"}, {"measurement": "fluorescence ratio w/ trypsin : w/o trypsin, excitation 553 nm, emission 580 nm", "value": 25, "unit": "fold"}, {"measurement": "fluorescence ratio w/ trypsin : w/o trypsin, excitation 553 nm, emission 581 nm", "value": 24, "unit": "fold"}, {"measurement": "fluorescence ratio w/ trypsin : w/o trypsin, excitation 553 nm, emission 582 nm", "value": 25, "unit": "fold"}, {"measurement": "fluorescence ratio w/ trypsin : w/o trypsin, excitation 553 nm, emission 583 nm", "value": 24, "unit": "fold"}, {"measurement": "fluorescence ratio w/ trypsin : w/o trypsin, excitation 553 nm, emission 584 nm", "value": 25, "unit": "fold"}, {"measurement": "fluorescence ratio w/ trypsin : w/o trypsin, excitation 553 nm, emission 585 nm", "value": 25, "unit": "fold"}]}
{"substance": "trypsin-like enzyme of Vibrio parahaemolyticus", "values": [{"measurement": "increase in fluorescence on cleavage of the substrate", "value": "Cleavage by the trypsin-like enzyme produced an increase in fluorescence."}]}
